Assay results reported in US5665701.

What was measured:
[1] = biological target: FcγRII receptor (CD32) on human platelets (human) (UniProt P12318)
[2] = biological target: FcγRII receptor (CD32) on human platelets (human) (UniProt P12318); remark: listed apart in the source

- concentration that doubled the latency of M.Ab.F11-induced aggregation [1]: 150 ng/mL
- inhibition of M.Ab.F11-induced ^14 C-serotonin release [2]: 1 µg/mL
Substance: CD32 antibody IV.3 (M.Ab.IV.3)
